Test results reported in US20070293656A1, “COLLAGEN BINDING PEPTIDES” (Epix Pharmaceuticals, Inc., priority 2005, published 2007).
Bridge positions count the residues as written; N and C are the ends. Ends that are not written are not given here.

Target: T1, human collagen type I (acid soluble, extracted from placenta, Sigma C7774) (human, UniProt P02452 162-1218; P08123 80-1119)
T1 construct: gelled and dried as a fibril film in the assay; also called dried human collagen; h-Collagen
Assay: dried collagen assay
Experimental: An additional 90 μL is reserved in a HPLC glass vial as a measure of the total concentration.

T1 sequence (P02452 162-1218 limits assumed, chain 1 of 2): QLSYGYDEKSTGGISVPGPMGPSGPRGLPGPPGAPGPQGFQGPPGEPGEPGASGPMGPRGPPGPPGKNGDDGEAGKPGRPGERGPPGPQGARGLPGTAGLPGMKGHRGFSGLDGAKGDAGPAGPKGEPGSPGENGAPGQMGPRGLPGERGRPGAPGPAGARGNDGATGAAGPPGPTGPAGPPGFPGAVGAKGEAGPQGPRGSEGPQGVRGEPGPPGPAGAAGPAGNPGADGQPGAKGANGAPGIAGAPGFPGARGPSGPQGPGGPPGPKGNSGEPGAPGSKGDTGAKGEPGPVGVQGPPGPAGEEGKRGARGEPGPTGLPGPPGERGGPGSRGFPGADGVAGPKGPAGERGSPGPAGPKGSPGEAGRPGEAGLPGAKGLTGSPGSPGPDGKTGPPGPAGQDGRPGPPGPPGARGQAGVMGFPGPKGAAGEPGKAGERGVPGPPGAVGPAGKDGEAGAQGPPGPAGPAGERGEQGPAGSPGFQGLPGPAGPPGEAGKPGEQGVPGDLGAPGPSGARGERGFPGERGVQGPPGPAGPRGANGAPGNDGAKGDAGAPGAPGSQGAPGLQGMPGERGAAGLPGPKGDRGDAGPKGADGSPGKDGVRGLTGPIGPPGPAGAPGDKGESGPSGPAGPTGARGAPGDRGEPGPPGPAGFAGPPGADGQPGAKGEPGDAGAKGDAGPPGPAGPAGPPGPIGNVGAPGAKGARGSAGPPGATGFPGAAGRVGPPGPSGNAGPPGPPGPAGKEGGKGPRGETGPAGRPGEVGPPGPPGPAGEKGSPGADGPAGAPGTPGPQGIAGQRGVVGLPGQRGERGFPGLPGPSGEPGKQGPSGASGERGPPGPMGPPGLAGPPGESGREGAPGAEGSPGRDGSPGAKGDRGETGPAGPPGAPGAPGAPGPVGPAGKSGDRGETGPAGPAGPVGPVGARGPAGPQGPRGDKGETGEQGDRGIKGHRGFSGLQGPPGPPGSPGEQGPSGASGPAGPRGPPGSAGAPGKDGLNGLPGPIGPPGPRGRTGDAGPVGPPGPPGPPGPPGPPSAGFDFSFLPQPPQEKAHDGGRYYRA
T1 sequence (P08123 80-1119 limits assumed, chain 2 of 2): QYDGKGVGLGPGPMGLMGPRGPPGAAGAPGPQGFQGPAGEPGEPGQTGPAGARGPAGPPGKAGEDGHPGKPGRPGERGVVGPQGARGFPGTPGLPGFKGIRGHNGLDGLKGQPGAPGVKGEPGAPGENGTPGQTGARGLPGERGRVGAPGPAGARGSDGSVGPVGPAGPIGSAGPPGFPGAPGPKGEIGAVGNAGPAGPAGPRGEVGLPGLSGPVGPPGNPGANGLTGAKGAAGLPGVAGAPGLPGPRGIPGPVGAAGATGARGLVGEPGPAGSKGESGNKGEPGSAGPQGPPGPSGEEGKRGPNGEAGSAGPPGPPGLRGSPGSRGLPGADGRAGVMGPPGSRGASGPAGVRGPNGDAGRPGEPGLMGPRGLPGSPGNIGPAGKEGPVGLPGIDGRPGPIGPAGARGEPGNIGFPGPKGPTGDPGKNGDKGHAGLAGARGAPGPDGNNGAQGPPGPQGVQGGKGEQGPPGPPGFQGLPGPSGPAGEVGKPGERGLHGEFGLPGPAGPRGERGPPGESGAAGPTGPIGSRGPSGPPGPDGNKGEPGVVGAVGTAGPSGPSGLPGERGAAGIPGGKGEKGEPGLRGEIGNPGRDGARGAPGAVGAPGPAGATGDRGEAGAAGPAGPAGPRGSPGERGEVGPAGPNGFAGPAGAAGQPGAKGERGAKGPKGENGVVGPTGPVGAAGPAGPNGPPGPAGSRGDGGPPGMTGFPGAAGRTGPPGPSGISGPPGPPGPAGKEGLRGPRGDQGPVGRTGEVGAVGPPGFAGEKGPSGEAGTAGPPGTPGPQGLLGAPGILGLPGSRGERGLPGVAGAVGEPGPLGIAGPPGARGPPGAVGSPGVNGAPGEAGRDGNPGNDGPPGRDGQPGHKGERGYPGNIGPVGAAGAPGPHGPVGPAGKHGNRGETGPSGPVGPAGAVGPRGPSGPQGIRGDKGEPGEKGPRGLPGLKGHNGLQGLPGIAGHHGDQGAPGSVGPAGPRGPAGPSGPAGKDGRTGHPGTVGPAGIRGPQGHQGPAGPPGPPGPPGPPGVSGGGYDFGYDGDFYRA

Row | Binder | % bound [%]
1 | FWTCMRDQVGEWHCGTE (disulfide 4-14 (inferred)) [SEQ ID NO: 88] | 1
2 | KWFCELMQDQWQCGSK (disulfide 4-13 (inferred)) [SEQ ID NO: 50] | 18
3 | KWFCELMHDQWQCGSK (disulfide 4-13 (inferred)) [SEQ ID NO: 51] | 18
4 | VWACRGGTTNWHCDL (disulfide 4-13 (inferred)) [SEQ ID NO: 41] | 1
5 | SWICTGDNIDWNCRFA (disulfide 4-13 (inferred)) [SEQ ID NO: 28] | 20
6 | NWYCTGTKSWECFWK (disulfide 4-12 (inferred)) [SEQ ID NO: 7] | 11
7 | YPACDDQTHLWNLACWPA (disulfide 4-15 (inferred)) [SEQ ID NO: 103] | 2
8 | TWACGWTTTGWDNCRWI (disulfide 4-14 (inferred)) [SEQ ID NO: 92] | 34
9 | NWKCWGVVKWECIWA (disulfide 4-12 (inferred)) [SEQ ID NO: 5] | 24
10 | TWQCSGNQKWSCEWF (disulfide 4-12 (inferred)) [SEQ ID NO: 6] | 20
11 | LTVCHPPYYGRCNFV (disulfide 4-12 (inferred)) [SEQ ID NO: 10] | 9
12 | TWNCYGVTEWHCYMI (disulfide 4-12 (inferred)) [SEQ ID NO: 9] | 7
13 | TWRCDQFKGKWVCRGG (disulfide 4-13 (inferred)) [SEQ ID NO: 42] | 40
14 | PLVCHPPYSGSCSLH (disulfide 4-12 (inferred)) [SEQ ID NO: 11] | 9
15 | EWLCVGDSLKWYCKHS (disulfide 4-13 (inferred)) [SEQ ID NO: 24] | 43
16 | WTDCQWMDEQLWTCRWD (disulfide 4-14 (inferred)) [SEQ ID NO: 94] | 21
17 | WTDCQWMDEQIWTCRWD (disulfide 4-14 (inferred)) [SEQ ID NO: 95] | 5
18 | WWGCRQGTGEHWSHCMWF (disulfide 4-15 (inferred)) [SEQ ID NO: 100] | 67
19 | WISCESSEEKISYCWRA (disulfide 4-14 (inferred)) [SEQ ID NO: 97] | 13

Row | Binder | % bound [%]
20 | WQLCSSRNDHVAYCFVS (disulfide 4-14 (inferred)) [SEQ ID NO: 96] | 17
21 | GWVCLQKGPKWVCDWD (disulfide 4-13 (inferred)) [SEQ ID NO: 46] | 23
22 | GWNCYEYDSQWICDHL (disulfide 4-13 (inferred)) [SEQ ID NO: 44] | 28
23 | KWHCELDSHMEWSCSGH (disulfide 4-14 (inferred)) [SEQ ID NO: 89] | 1
24 | WAYCMTDPSGKYRYCQNW (disulfide 4-15 (inferred)) [SEQ ID NO: 102] | 31
25 | TWMCVDPPLWRCWVQ (disulfide 4-12 (inferred)) [SEQ ID NO: 4] | 45
26 | PWTCRMTENTWVCDLN (disulfide 4-13 (inferred)) [SEQ ID NO: 47] | 22
27 | WRCDGDAHDWHCDWF (disulfide 3-12 (inferred)) [SEQ ID NO: 26] | 25
28 | TWACGWTTTGWDNCRWI (disulfide 4-14 (inferred)) [SEQ ID NO: 90] | 34
29 | RWSCWLDENGWKCDGT (disulfide 4-13 (inferred)) [SEQ ID NO: 52] | 15
30 | PWQCYSDKTSWVCNLY (disulfide 4-13 (inferred)) [SEQ ID NO: 43] | 30
31 | SWHCFGDNENWMCNLR (disulfide 4-13 (inferred)) [SEQ ID NO: 27] | 24
32 | GWDCQGTDNIWECVRK (disulfide 4-13 (inferred)) [SEQ ID NO: 30] | 16
33 | GWVCGGDHTTWECHLQ (disulfide 4-13 (inferred)) [SEQ ID NO: 31] | 15
34 | PMICHAPYVGKCNFL (disulfide 4-12 (inferred)) [SEQ ID NO: 12] | 7
35 | DWTCSGDEYTWHCNYE (disulfide 4-13 (inferred)) [SEQ ID NO: 17] | 78
36 | DWTCSGDEYTWYCNYE (disulfide 4-13 (inferred)) [SEQ ID NO: 18] | 78
37 | DWTCSGDEYYWHCNYE (disulfide 4-13 (inferred)) [SEQ ID NO: 16] | 83
38 | DWTCRGDEYTWHCNYE (disulfide 4-13 (inferred)) [SEQ ID NO: 14] | 83

Row | Binder | % bound [%]
39 | DWTCYGDEYTWHCNYE (disulfide 4-13 (inferred)) [SEQ ID NO: 15] | 83
40 | DWTCSGDEYRWHCNYE (disulfide 4-13 (inferred)) [SEQ ID NO: 19] | 70
41 | AKKCWYNDGGHLRCRTL (disulfide 4-14 (inferred)) [SEQ ID NO: 99] | 3
42 | DWECHGNEFEWNCLMR (disulfide 4-13 (inferred)) [SEQ ID NO: 22] | 55
43 | MWDCTGNSAEWRCEMQ (disulfide 4-13 (inferred)) [SEQ ID NO: 34] | 11
44 | WWTCHMTWSGQWDSCKWH (disulfide 4-15 (inferred)) [SEQ ID NO: 101] | 56
45 | AWSCWIVEGRWNCSDI (disulfide 4-13 (inferred)) [SEQ ID NO: 48] | 22
46 | EWRCRGDSSSWLCDYT (disulfide 4-13 (inferred)) [SEQ ID NO: 40] | 3
47 | EWQCTQYANQWNCKYN (disulfide 4-13 (inferred)) [SEQ ID NO: 45] | 25
48 | WWACQKGQHDWEKCHWL (disulfide 4-14 (inferred)) [SEQ ID NO: 93] | 5
49 | DWTCVGDHKTWKCNFH (disulfide 4-13 (inferred)) [SEQ ID NO: 21] | 57
50 | IWLCTGGAATWNCKFD (disulfide 4-13 (inferred)) [SEQ ID NO: 25] | 39
51 | NWVCSGDHADWSCALI (disulfide 4-13 (inferred)) [SEQ ID NO: 32] | 12
52 | AWFCSQKNRLWSCGET (disulfide 4-13 (inferred)) [SEQ ID NO: 49] | 19
53 | PWYCSGDHLDWKCIYQ (disulfide 4-13 (inferred)) [SEQ ID NO: 20] | 64
54 | DWICHGDFDTWKCDLQ (disulfide 4-13 (inferred)) [SEQ ID NO: 29] | 16
55 | YWVCGGDHQSWHCSHP (disulfide 4-13 (inferred)) [SEQ ID NO: 35] | 8
56 | AWTCVGGEKTWGCVWN (disulfide 4-13 (inferred)) [SEQ ID NO: 33] | 12
57 | AWDCSGNIPTWYCRRL (disulfide 4-13 (inferred)) [SEQ ID NO: 23] | 44
